For the assay, the target named is T1, SARS-CoV-2 native Spike (S) trimer (Acro Biosystems) (SARS-CoV-2, UniProt P0DTC2 16-1213).
T1 construct: also called Spike trimer
Briefly: ELISA on spike trimer.

B1: AB-009681 (antibody, V domains shown)
VH: QVQLVQSGAEVKKPGSSVKVSCKASGGTFSSYAISWVRQAPGQGLEWMGGIIPIFGTANYAQKFQGRVTITADESTSTAYMELSSLRSEDTAVYYCASVGGDYDLDYWGQGTLVTVSS
VL: EIVLTQSPATLSLSPGERATLSCRASQSVSSYLAWYQQKPGQAPRLLIYDASNRATGIPARFSGSGSGTDFTLTISSLEPEDFAVYYCQQRSNWPPYTFGQGTKLEIK
In the case of B1, the binding result is “no binding”.

The record behind these values is patent US20240301038A1 (ATRECA, published 2024).
